Assay [1] concerns the target T1, human LILRB2 on the cell surface (human, UniProt Q8N423 22-597).
T1 construct: whole, on cells; also called CHO K1 cells expressing human LILRB2; LILRB2 on HMDMs
Put plainly: positive control of the LILRB2 ligand-blocking flow cytometry assay. Background: A flow cytometer gives signals particle by particle.

Assay [2] has as its target T2, human CD47 on the cell surface (human, UniProt Q08722 19-323).
T2 construct: whole, on cells; also called plasma membranous CD47; CHO CD47 cells
Description: flow cytometry, HT-29 cells (CD47+, no PD-L1).

Assay [3] deals with T2, human CD47 on the cell surface. Description: flow cytometry, NCI-H292 cells; competitor biotinylated SIRPα; by the text maximum inhibition normalised to PRO2777.
Assay [4] has the same target. Put plainly: flow cytometry, CHO CD47 cells; competitor biotinylated SIRPα; column head prints EC50.
The target is the same in assay [5]. Put plainly: cell-based or functional assay.
The target in assay [6] is T3, human PD-L1 on the cell surface (human, UniProt Q9NZQ7 19-290). Description: cell-based or functional assay.
In assay [7] the target is T2, human CD47 on the cell surface. Put plainly: flow cytometry, CHO CD47 cells; competitor biotinylated SIRPα; by the text maximum inhibition normalised to PRO2777.
The target of assay [8] is T3, human PD-L1 on the cell surface. Put plainly: cell-based or functional assay. The source holds these as a separate data set.
Assay [9] addresses T2, human CD47 on the cell surface. Description: flow cytometry, NCI-H292 cells (CD47+ PD-L1+); competitor biotinylated SIRPα; column head prints EC50.
Assay [10] shares this target. Put plainly: flow cytometry, human erythrocytes.
Assay [11] concerns the target T4, recombinant human PDL1 (human, UniProt Q9NZQ7 19-238, limits assumed).
T4 construct: SPR antigen; also called CD274; B7-H1
Description: SPR, antigen immobilised, antibody as analyte. On the technique in general: Surface plasmon resonance follows binding to a sensor surface in real time, without labels.

Assay [12] has as its target T5, recombinant human CD47 (human, UniProt Q08722 19-139, limits assumed). Description: SPR, antigen immobilised, antibody as analyte.
The target in assay [13] is T4, recombinant human PDL1. Put plainly: SPR, antigen immobilised, antibody as analyte. This is another data set of the same source.
Assay [14] deals with T5, recombinant human CD47. Put plainly: SPR, antigen immobilised, antibody as analyte. This is another data set of the same source.
The target of assay [15] is T2, human CD47 on the cell surface. Description: cell-based or functional assay. The source holds these as a separate data set.
In assay [16] the target is T3, human PD-L1 on the cell surface. Description: cell-based or functional assay. This is another data set of the same source.
The target in assay [17] is T6, LILRA2 on transiently transfected CHO cells (UniProt Q8N149 24-483).
T6 construct: whole, on cells; V5 tag at the N-terminus
T6 sequence (Q8N149 24-483): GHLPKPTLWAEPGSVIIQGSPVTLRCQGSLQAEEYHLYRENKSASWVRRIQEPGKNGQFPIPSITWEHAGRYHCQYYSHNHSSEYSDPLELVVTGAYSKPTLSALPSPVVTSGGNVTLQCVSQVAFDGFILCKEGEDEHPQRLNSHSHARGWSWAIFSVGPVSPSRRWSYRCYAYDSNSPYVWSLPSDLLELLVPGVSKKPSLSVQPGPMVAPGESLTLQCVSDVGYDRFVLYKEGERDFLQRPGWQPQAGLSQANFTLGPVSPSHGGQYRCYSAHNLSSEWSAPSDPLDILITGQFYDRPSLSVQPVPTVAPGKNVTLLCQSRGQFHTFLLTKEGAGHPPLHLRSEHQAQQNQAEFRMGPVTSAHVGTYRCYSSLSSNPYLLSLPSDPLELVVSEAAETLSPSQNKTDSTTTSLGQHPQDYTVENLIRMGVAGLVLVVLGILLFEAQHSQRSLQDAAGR
Description: CELISA, transiently transfected CHO cells.

In assay [18] the target is T7, LILRA4 on transiently transfected CHO cells (UniProt P59901 24-499).
T7 construct: whole, on cells; V5 tag at the N-terminus
T7 sequence (P59901 24-499): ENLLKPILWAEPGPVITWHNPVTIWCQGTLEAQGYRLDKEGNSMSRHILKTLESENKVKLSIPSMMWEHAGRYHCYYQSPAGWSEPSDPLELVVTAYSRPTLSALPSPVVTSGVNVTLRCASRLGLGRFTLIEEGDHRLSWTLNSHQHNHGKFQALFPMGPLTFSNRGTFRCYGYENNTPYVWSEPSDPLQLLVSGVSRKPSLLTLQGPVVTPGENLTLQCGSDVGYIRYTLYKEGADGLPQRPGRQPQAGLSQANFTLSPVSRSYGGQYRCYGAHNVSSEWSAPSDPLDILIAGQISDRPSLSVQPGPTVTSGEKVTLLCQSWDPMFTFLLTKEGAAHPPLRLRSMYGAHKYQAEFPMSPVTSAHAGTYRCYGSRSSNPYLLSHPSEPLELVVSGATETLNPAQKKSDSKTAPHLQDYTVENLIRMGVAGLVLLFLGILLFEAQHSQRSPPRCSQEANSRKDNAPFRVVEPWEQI
Put plainly: CELISA, transiently transfected CHO cells.

The target of assay [19] is T8, LILRB2 (Q8N423-2) on transiently transfected CHO cells (UniProt Q8N423-2 22-597).
T8 construct: whole, on cells
T8 sequence (Q8N423 22-597, one chain of several): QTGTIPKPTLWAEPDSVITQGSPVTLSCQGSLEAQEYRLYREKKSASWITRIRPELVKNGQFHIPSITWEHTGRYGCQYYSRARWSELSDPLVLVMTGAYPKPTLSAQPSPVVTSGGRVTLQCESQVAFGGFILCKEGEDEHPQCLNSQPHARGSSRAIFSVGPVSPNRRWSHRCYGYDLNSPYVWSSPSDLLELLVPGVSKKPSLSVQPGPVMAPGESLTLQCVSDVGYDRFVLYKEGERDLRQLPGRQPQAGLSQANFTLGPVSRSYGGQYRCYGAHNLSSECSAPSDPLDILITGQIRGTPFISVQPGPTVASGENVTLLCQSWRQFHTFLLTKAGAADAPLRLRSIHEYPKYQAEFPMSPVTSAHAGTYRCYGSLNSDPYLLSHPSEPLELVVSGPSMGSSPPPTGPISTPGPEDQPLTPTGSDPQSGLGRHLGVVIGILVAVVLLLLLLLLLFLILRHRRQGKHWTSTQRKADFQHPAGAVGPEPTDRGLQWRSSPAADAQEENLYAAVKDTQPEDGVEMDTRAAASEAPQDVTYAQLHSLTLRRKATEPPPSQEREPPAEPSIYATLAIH
Description: CELISA, transiently transfected CHO cells.

Assay [20] deals with T9, LILRA3 on transiently transfected CHO cells (UniProt Q8N6C8 24-439).
T9 construct: whole, on cells; V5 tag at the N-terminus
T9 sequence (Q8N6C8 24-439): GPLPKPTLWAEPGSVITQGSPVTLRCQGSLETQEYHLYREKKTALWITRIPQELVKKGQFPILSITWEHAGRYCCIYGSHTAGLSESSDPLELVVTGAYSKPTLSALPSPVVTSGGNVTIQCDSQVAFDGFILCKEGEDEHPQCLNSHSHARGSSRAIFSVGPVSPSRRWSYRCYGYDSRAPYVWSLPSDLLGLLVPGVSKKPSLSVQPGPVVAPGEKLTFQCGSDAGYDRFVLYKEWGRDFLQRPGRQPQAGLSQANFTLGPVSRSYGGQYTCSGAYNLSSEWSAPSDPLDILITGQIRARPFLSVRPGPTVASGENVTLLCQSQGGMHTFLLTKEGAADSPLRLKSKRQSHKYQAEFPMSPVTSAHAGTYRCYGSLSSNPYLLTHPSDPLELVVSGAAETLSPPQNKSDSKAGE
Description: CELISA, transiently transfected CHO cells.

The target of assay [21] is T10, LILRB3 on transiently transfected CHO cells (UniProt O75022 24-631, limits assumed).
T10 construct: whole, on cells; V5 tag at the N-terminus
Put plainly: CELISA, transiently transfected CHO cells.

Assay [22] addresses T11, LILRB5 on transiently transfected CHO cells (UniProt O75023 24-590, limits assumed).
T11 construct: whole, on cells; V5 tag at the N-terminus
Put plainly: CELISA, transiently transfected CHO cells.

For assay [23], the target named is T12, LILRB4 on transiently transfected CHO cells (UniProt Q8NHJ6 22-448).
T12 construct: whole, on cells; V5 tag at the N-terminus
Description: CELISA, transiently transfected CHO cells.

Assay [24] addresses T13, LILRB1 on transiently transfected CHO cells (UniProt Q8NHL6 24-650).
T13 construct: whole, on cells; V5 tag at the N-terminus
Description: CELISA, transiently transfected CHO cells.

Assay [25] concerns the target T14, LILRA6 on transiently transfected CHO cells (UniProt Q6PI73 24-481).
T14 construct: whole, on cells; V5 tag at the N-terminus
Put plainly: CELISA, transiently transfected CHO cells.

Assay [26] deals with T15, LILRA1 on transiently transfected CHO cells (UniProt O75019 17-489, limits assumed).
T15 construct: whole, on cells; V5 tag at the N-terminus
T15 sequence (O75019 17-489 limits assumed): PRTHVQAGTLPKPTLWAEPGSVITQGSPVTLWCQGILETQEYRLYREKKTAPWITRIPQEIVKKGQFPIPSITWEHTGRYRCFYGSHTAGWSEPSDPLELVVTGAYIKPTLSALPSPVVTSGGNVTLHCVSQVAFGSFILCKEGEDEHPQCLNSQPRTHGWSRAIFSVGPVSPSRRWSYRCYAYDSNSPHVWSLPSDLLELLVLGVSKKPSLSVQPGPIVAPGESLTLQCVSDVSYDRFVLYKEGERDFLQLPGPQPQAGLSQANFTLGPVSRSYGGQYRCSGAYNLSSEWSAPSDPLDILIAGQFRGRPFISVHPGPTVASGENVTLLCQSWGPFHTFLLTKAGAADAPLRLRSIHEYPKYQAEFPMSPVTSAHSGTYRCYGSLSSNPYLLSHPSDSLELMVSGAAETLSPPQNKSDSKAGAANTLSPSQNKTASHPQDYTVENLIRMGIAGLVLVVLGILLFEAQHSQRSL
Description: CELISA, transiently transfected CHO cells.

Assay [27] deals with T16, LILRA5 on transiently transfected CHO cells (UniProt A6NI73 42-299).
T16 construct: whole, on cells; V5 tag at the N-terminus
T16 sequence (A6NI73 42-299): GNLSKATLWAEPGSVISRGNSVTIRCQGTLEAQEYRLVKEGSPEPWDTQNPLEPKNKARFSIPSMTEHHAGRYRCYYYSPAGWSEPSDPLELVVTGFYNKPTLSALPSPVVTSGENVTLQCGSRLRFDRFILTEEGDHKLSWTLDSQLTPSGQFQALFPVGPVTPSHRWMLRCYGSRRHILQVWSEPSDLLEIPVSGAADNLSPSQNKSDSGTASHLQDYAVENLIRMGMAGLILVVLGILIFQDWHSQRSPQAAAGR
Description: CELISA, transiently transfected CHO cells.

Like-named read-outs stand apart in the source and are kept apart here. A value given as a limit tells only on which side of the number the result lay.

These results are taken from EP4574844A1 (Numab Therapeutics AG, dated 2025).

What is called EC50 is the concentration that produces a half-maximal response. What is called IC50 is the point on the concentration scale where inhibition reaches its midpoint. High values mean lower potency, low ones higher potency. Usually Kd stands for the concentration at which binding is half-saturated. The term koff denotes the rate constant with which the complex falls apart. In general, kon refers to the second-order rate constant of association.

T11 sequence (O75023 24-590 limits assumed): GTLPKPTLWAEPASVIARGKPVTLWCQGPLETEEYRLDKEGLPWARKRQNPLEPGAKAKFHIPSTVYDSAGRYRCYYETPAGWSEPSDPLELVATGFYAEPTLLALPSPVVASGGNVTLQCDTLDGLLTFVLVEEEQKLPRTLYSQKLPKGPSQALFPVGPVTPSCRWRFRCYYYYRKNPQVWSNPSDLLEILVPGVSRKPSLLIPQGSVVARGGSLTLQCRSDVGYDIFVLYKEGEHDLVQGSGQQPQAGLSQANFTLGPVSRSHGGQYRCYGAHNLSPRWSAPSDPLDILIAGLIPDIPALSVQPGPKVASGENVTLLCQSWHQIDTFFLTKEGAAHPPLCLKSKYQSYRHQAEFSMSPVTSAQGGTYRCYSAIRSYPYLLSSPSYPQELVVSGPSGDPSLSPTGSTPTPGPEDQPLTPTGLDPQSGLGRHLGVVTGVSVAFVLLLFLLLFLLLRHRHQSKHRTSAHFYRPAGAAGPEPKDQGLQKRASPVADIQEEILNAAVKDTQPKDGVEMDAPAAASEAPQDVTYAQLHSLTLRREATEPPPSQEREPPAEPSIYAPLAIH
T14 sequence (Q6PI73 24-481): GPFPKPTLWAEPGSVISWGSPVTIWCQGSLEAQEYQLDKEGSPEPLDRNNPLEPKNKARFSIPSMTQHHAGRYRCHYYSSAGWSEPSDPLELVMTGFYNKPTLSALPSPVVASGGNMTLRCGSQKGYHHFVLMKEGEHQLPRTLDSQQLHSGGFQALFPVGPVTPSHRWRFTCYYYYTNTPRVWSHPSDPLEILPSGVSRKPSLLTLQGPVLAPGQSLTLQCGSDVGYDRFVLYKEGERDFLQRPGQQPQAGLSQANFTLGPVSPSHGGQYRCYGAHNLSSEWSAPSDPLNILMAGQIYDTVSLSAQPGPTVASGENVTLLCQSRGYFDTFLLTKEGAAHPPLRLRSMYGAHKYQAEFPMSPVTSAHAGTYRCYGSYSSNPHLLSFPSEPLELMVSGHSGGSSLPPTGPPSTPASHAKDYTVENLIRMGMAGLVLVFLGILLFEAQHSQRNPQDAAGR
T1 sequence (Q8N423 22-597): as the sequence (Q8N423 22-597, one chain of several) above
T13 sequence (Q8NHL6 24-650): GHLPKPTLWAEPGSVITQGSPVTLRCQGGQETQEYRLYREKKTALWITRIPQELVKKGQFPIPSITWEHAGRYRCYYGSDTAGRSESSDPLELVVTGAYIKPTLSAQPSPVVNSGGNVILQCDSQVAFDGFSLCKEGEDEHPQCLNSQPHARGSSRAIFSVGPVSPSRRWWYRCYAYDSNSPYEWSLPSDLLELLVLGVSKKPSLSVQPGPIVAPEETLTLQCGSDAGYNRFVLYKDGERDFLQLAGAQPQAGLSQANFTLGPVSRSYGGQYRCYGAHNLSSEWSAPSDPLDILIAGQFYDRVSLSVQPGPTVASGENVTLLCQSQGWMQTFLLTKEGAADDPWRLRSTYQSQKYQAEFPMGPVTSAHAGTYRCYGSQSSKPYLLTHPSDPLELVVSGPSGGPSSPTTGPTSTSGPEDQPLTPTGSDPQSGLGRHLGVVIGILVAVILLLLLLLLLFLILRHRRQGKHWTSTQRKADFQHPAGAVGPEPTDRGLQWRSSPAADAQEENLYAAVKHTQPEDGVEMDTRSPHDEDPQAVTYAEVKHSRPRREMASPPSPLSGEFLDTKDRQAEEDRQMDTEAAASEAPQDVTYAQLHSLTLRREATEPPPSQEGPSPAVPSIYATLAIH

B1: PRO2518 (antibody, human IgG4 S228P, kappa, V domains shown)
VH: QITLKESGPTLVKPTQTLTLTCTFSGFSLNTYAMGVSWIRQPPGKALEWLASIWWNGNKYNNPSLKSRLTVTKDTSKNQVVLTMTNMDPVDTATYYCAHSRIIRFTDYVMDAWGQGTLVTVSS
VL: DIQMTQSPSSLSTSVGDRVTITCRASEDIYNDLAWYQQKPGKAPKLLIYNANSLHTGVASRFSGSGSGTDFTFTISSLQPEDVATYFCQQYYDYPLTFGQGTKLEIKR
notes: also called J19.H1; J-19
On to B1, for which the binding result in assay [1] was “binds”.

B2: PRO3790 (bispecific antibody, human IgG1, kappa)
chain: DVQMTQSPSSLSASVGDRVTITCQASQSISSWVSWYQQKPGKPPKLLIYRGGYLESGVPSRFSASGSGTDFTLTISSLQPEDFATYYCQSTDSSTYGGAFGCGTKVTVLGGGGGSGGGGSGGGGSGGGGSQQVVESGGGLVQPGGSLRLSCAVSGIDLNSYAMTWVRQAPGKCLEWIGYIGSASSTYYASWASGRFTISKDNSKNTVYLQMNSLRAEDSAVYFCARGSTYINIWGQGTLVKVSSEPKSSDKTHTCPPCPAPELLGGPSVFLFPPKPKDTLMISRTPEVTCVVVDVSHEDPEVKFNWYVDGVEVHNAKTKPREEQYNSTYRVVSVLTVLHQDWLNGKEYKCKVSNKALPAPIEKTISKAKGQPREPQVYTLPPCREEMTKNQVSLSCAVKGFYPSDIAVEWESNGQPENNYKTTPPVLDSDGSFFLVSKLTVDKSRWQQGNVFSCSVMHEALHNHYTQKSLSLSPGK
heavy: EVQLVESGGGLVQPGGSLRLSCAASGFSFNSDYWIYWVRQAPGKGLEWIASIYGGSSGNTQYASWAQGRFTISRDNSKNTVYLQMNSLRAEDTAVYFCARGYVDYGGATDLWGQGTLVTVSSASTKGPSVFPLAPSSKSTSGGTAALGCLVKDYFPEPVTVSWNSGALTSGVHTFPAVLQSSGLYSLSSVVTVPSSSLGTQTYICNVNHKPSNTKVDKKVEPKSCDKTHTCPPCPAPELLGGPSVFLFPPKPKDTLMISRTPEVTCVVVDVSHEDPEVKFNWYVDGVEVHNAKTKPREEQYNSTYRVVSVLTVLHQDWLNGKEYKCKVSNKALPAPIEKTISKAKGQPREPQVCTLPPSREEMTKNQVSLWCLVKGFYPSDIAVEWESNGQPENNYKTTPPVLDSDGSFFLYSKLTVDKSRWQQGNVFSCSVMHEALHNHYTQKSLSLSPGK
light: DIQMTQSPASLSASVGDRVTITCQASQSIGTYLAWYQQKPGKPPKLLIYRAFILASGVPSRFSGSGSGTDFTLTISSLQPEDFATYYCQSNFYSDSTTIGPNAFGQGTKVEIKRTVAAPSVFIFPPSDEQLKSGTASVVCLLNNFYPREAKVQWKVDNALQSGNSQESVTEQDSKDSTYSLSSTLTLSKADYEKHKVYACEVTHQGLSSPVTKSFNRGEC
notes: anti-CD47 x PDL1: 70-26-B04-sc03 scFv on hole-Fc, 37-20-B03-sc09.1 Fab on knob-Fc
In the case of B2, the EC50 is > 100 nM in assay [2] and 98.8 nM in assay [10]. Moreover, the “Rel. maximum binding (max. MFI sample / max. MFI magrolimab)” value in [3] is 92.5; in assay [7], 87. Besides, the IC50 in assay [4] was 110 nM; in assay [9] it was 0.068 nM. In assay [5], the “CD47 driven EC50 [nM], phagocytosis of H292 cells” value (from here on “CD47 driven EC50 … of H292 cells”) amounted to 31.2 nM. Moreover, the “PD-L1 driven EC50 [nM], phagocytosis of H292 cells” value (shortened to “PD-L1 driven EC50 [nM]”) in assay [6] amounted to 0.04 nM. Further, the “EC50 [nM], PD-L1 / PD-1 transgenic NFAT reporter gene assay” value in assay [8] is 0.272 nM. In addition, the Kd with recombinant human PDL1 [11] was found to be 0.0759 nM; with recombinant human CD47 [12], 35 nM. Besides, the koff came out at 4.19e-05 s⁻¹ with recombinant human PDL1 [11] and 0.0235 s⁻¹ in the assay with recombinant human CD47 [12]. For the same molecule, the kon with recombinant human PDL1 [11] worked out at 552000 M⁻¹ s⁻¹; with recombinant human CD47 [12], 672000 M⁻¹ s⁻¹.

B3: PRO5053 (antibody)
chain 1: DVQMTQSPSSLSASVGDRVTITCQASQSISSWVSWYQQKPGKPPKLLIYRGGYLESGVPSRFSASGSGTDFTLTISSLQPEDFATYYCQSTDSSTYGGAFGCGTKVTVLGGGGGSGGGGSGGGGSGGGGSQQVVESGGGLVQPGGSLRLSCAVSGIDLNSYAMTWVRQAPGKCLEWIGYIGSASSTYYASWASGRFTISKDNSKNTVYLQMNSLRAEDSAVYFCARGSTYINIWGQGTLVKVSSEPKSSDKTHTCPPCPAPELLGGPSVFLFPPKPKDTLMISRTPEVTCVVVDVSHEDPEVKFNWYVDGVEVHNAKTKPREEQYNSTYRVVSVLTVLHQDWLNGKEYKCKVSNKALPAPIEKTISKAKGQPREPQVYTLPPCREEMTKNQVSLSCAVKGFYPSDIAVEWESNGQPENNYKTTPPVLDSDGSFFLVSKLTVDKSRWQQGNVFSCSVMHEALHNHYTQKSLSLSPGKGGGGSGGGGSDIQMTQSPSSLSASVGDRVTITCQSSESVYSNNQLSWYQQKPGQPPKLLIYDASDLASGVPSRFSGSGSGTDFTLTISSLQPEDFATYYCAGGFSSSSDTAFGCGTKLTVLGGGGGSGGGGSGGGGSGGGGSEVQLVESGGGLVQPGGSLRLSCAASGFSLSSNAMGWVRQAPGKCLEYIGIISVGGFTYYASWAKGRFTISRDNSKNTVYLQMNSLRAEDSATYFCARDRHGGDSSGAFYLWGQGTLVKVSS
chain 2: not shown
notes: anti-PDL1 x CD47 x (hSA dummy domain); also called PRO5052 with dummy domain for LILRB2-BD
On to B3, for which, in the assay with recombinant human PDL1 [13], the Kd amounted to 0.0133 nM, the koff was 2.72e-05 s⁻¹ and the kon came to 2.05e+06 M⁻¹ s⁻¹. In the assay with recombinant human CD47 [14], the Kd worked out at 49.7 nM, the koff is 0.0265 s⁻¹ and the kon was 533000 M⁻¹ s⁻¹. Further, in assay [15], the “CD47 driven EC50 [nM], phagocytosis of A375 cells” value is 27.5 nM and the “CD47 driven EC50 … of H292 cells” value is 28.4 nM. In addition, in [16], the “PD-L1 driven EC50 [nM]” value is 0.18 nM. Moreover, the “CD47 driven EC50 … of H292 cells” value in assay [5] amounted to 28.2 nM. Besides, the “PD-L1 driven EC50 [nM]” value in assay [6] was found to be 0.19 nM.

B4: PRO3635 (antibody, human IgG4 S228P, kappa, V domains shown)
VH: QQLVESGGGRVQPGGSLRLSCAASGFSFTNNYYMCWVRQAPGKGLEWIACMLVGAWGNTYYASWANGRFTISKDNSKNTVYLQMNSLRAEDTATYFCARARDYTWTLGGDPETSGFNLWGQGTQVTVSS
VL: DVQMTQSPSSLSASVGDRVTITCQASQSIGSNLAWYQQKPGKPPKLLIYKASTLESGVPSRFSGSGSGTDFTLTISSLQPEDFATYYCQSTAGSSRSGNYGYVFGQGTKVEIKR
notes: anti-LILRB2 IgG4; also called 68-18-E11-sc02 IgG4; IgG variant of scFv PRO3064
For B4, the binding result was “no binding (tested: up to 100 nM)” in assay [17]; “no binding (tested: up to 100 nM)” in [18]; “binds” in assay [19]; “no binding (tested: up to 100 nM)” in assay [20]; “no binding (tested: up to 100 nM)” in [21]; “no binding (tested: up to 100 nM)” in assay [22]. Further, the binding result in assay [23], in assay [24], in assay [25], in assay [26] and in [27] was “no binding (tested: up to 100 nM)” in each case.
